{"source": "paper PMC3824616", "binders": {"B1": {"name": "phospho-mimetic S116D eNOS mutant, adenovirus-expressed (enzyme)", "chain": "MGNLKSVGQEPGPPCGLGLGLGLGLCGKQGPASPAPEPSRAPAPATPHAPDHSPAPNSPTLTRPPEGPKFPRVKNWELGSITYDTLCAQSQQDGPCTPRCCLGSLVLPRKLQTRPDPGPPPAEQLLSQARDFINQYYSSIKRSGSQAHEERLQEVEAEVASTGTYHLRESELVFGAKQAWRNAPRCVGRIQWGKLQVFDARDCSSAQEMFTYICNHIKYATNRGNLRSAITVFPQRAPGRGDFRIWNSQLVRYAGYRQQDGSVRGDPANVEITELCIQHGWTPGNGRFDVLPLLLQAPDEAPELFVLPPELVLEVPLEHPTLEWFAALGLRWYALPAVSNMLLEIGGLEFSAAPFSGWYMSTEIGTRNLCDPHRYNILEDVAVCMDLDTRTTSSLWKDKAAVEINLAVLHSFQLAKVTIVDHHAATVSFMKHLDNEQKARGGCPADWAWIVPPISGSLTPVFHQEMVNYILSPAFRYQPDPWKGSATKGAGITRKKTFKEVANAVKISASLMGTLMAKRVKATILYASETGRAQSYAQQLGRLFRKAFDPRVLCMDEYDVVSLEHEALVLVVTSTFGNGDPPENGESFAAALMEMSGPYNSSPRPEQHKSYKIRFNSVSCSDPLVSSWRRKRKESSNTDSAGALGTLRFCVFGLGSRAYPHFCAFARAVDTRLEELGGERLLQLGQGDELCGQEEAFRGWAKAAFQASCETFCVGEEAKAAAQDIFSPKRSWKRQRYRLSTQAEGLQLLPGLIHVHRRKMFQATVLSVENLQSSKSTRATILVRLDTAGQEGLQYQPGDHIGICPPNRPGLVEALLSRVEDPPPPTESVAVEQLEKGSPGGPPPSWVRDPRLPPCTLRQALTFFLDITSPPSPRLLRLLSTLAEEPSEQQELETLSQDPRRYEEWKWFRCPTLLEVLEQFPSVALPAPLLLTQLPLLQPRYYSVSSAPNAHPGEVHLTVAVLAYRTQDGLGPLHYGVCSTWLSQLKTGDPVPCFIRGAPSFRLPPDPYVPCILVGPGTGIAPFRGFWQERLHDIESKGLQPAPMTLVFGCRCSQLDHLYRDEVQDAQERGVFGRVLTAFSREPDSPKTYVQDILRTELAAEVHRVLCLERGHMFVCGDVTMATSVLQTVQRILATEGDMELDEAGDVIGVLRDQQRYHEDIFGLTLRTQEVTSRIRTQSFSLQERHLRGAVPWAFDPPGPDTPGP"}}, "target": "human constitutively active c-Src, adenovirus-expressed (human) (UniProt P12931)", "assay": "co-IP"}
{"binder": "B1", "values": [{"measurement": "percent reduction of co-immunoprecipitation against WT eNOS", "result": 88, "unit": "%"}]}
